T1: FcγRIIa H (FcγRIIa type H, His at position 131), extracellular domain with C-terminal His tag (human, UniProt P12318 34-217)
T1 construct: extracellular domain; Expressed in FreeStyle293 cells; analyte in the Biacore assay; also called FcgRIIa H; 2aH; not shown: His tag at the C terminus
T1 sequence (looked up): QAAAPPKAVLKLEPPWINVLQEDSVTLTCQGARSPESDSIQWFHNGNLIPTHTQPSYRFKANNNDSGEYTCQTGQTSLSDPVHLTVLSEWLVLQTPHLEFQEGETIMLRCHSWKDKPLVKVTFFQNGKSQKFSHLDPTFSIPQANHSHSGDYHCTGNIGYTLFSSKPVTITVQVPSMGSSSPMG

B1: GpH7-A5/GpH7-B3 variant A327_12R/GpL16-k0 (antibody, human IgG1, kappa)
heavy 1: not shown
heavy 2: not shown
light: DIVMTQSPLSLPVTPGEPASISCQASESLVHSNRNTYLHWYLQKPGQSPQLLIYKVSNRFSGVPDRFSGSGSGTDFTLKISRVEAEDVGVYYCSQNTHVPPTFGQGTKVEIERTVAAPSVFIFPPSDEQLKSGTASVVCLLNNFYPREAKVQWKVDNALQSGNSQESVTEQDSKDSTYSLSSTLTLSKADYEKHKVYACEVTHQGLSSPVTKSFNRGEC
notes: He Ab; IgG1; mutation in one H chain only; also called He Ab
B2: GpH7-A5/GpH7-B3 variant L328_11K/GpL16-k0 (antibody, human IgG1, kappa)
heavy 1: not shown
heavy 2: not shown
light: B1 light
notes: as for B1
B3: GpH7-A5/GpH7-B3 variant L328_12R/GpL16-k0 (antibody, human IgG1, kappa)
heavy 1: not shown
heavy 2: not shown
light: B1 light
notes: as for B1
B4: GpH7-A5/GpH7-B3 variant Y300_01G/GpL16-k0 (antibody, human IgG1, kappa)
heavy 1: not shown
heavy 2: not shown
light: B1 light
notes: heterodimerized IgG1; mutation in one H chain only; also called He Ab
B5: GpH7-A5/GpH7-B3 variant Y300_09D/GpL16-k0 (antibody, human IgG1, kappa)
heavy 1: not shown
heavy 2: not shown
light: B1 light
notes: as for B4
B6: GpH7-B3 variant Y300_06M/GpL16-k0 (antibody, human IgG1, kappa)
heavy: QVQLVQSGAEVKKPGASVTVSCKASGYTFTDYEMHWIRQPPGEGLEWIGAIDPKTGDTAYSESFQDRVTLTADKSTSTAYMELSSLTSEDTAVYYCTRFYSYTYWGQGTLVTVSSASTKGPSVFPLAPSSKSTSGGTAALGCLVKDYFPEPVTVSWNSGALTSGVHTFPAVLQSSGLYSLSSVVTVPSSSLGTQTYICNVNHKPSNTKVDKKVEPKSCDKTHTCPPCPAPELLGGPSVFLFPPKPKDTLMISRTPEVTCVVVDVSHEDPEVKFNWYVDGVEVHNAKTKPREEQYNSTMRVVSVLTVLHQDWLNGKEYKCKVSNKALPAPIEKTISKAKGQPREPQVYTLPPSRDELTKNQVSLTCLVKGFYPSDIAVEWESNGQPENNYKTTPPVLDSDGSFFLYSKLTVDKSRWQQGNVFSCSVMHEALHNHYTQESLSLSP
light: B1 light
notes: homodimerized IgG1; mutation in both H chains; also called Ho Ab
B7: GpH7-A5/GpH7-B3 variant Y296_13S/GpL16-k0 (antibody, human IgG1, kappa)
heavy 1: not shown
heavy 2: not shown
light: B1 light
notes: as for B4
B8: GpH7-A5/GpH7-B3 variant Y300_14T/GpL16-k0 (antibody, human IgG1, kappa)
heavy 1: not shown
heavy 2: not shown
light: B1 light
notes: as for B4
B9: GpH7-A5/GpH7-B3 variant Y300_02A/GpL16-k0 (antibody, human IgG1, kappa)
heavy 1: not shown
heavy 2: not shown
light: B1 light
notes: as for B4
B10: GpH7-A5/GpH7-B3 variant Y300_08L/GpL16-k0 (antibody, human IgG1, kappa)
heavy 1: not shown
heavy 2: not shown
light: B1 light
notes: as for B4
B11: GpH7-B3 variant Y300_11K/GpL16-k0 (antibody, human IgG1, kappa)
heavy: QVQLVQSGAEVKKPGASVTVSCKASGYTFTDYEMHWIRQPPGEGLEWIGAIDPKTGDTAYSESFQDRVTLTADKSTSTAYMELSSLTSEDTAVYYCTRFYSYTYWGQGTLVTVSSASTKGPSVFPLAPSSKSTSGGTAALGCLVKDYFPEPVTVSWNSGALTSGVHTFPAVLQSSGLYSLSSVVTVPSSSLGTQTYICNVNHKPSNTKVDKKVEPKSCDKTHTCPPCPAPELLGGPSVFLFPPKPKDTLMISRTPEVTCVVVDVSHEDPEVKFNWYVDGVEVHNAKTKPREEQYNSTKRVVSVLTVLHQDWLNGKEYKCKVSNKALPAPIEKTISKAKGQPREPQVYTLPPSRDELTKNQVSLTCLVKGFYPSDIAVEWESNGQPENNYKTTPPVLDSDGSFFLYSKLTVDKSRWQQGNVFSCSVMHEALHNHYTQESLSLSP
light: B1 light
notes: as for B6
B12: GpH7-B3 variant Y296_06M/GpL16-k0 (antibody, human IgG1, kappa)
heavy: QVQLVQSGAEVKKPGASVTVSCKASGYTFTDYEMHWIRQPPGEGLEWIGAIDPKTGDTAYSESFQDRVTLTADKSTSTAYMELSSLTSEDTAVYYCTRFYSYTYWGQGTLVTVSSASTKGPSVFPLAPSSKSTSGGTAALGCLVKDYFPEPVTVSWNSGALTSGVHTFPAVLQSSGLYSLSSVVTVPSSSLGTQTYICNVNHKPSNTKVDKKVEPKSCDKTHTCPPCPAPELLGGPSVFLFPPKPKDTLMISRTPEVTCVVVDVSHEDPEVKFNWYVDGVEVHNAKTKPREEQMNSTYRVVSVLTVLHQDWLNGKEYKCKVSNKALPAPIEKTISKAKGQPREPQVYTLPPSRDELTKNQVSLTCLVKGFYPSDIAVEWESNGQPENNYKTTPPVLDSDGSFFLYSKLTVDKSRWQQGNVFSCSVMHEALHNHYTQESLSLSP
light: B1 light
notes: as for B6
B13: GpH7-B3 variant Y296_12R/GpL16-k0 (antibody, human IgG1, kappa)
heavy: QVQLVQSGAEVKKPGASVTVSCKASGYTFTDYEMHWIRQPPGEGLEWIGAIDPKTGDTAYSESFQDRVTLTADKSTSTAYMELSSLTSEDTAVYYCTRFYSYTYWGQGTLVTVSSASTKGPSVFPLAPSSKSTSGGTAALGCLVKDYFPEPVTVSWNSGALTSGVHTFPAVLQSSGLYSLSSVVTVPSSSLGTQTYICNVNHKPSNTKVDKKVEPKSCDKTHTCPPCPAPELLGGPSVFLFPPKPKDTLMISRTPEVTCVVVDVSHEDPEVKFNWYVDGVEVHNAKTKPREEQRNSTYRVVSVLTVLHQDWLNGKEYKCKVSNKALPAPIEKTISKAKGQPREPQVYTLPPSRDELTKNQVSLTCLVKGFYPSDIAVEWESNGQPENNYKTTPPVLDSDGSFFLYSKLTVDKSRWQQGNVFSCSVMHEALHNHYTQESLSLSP
light: B1 light
notes: as for B6
B14: GpH7-A5/GpH7-B3 variant T335_20W/GpL16-k0 (antibody, human IgG1, kappa)
heavy 1: not shown
heavy 2: not shown
light: B1 light
notes: as for B4
B15: GpH7-A5/GpH7-B3 variant Y300_03V/GpL16-k0 (antibody, human IgG1, kappa)
heavy 1: not shown
heavy 2: not shown
light: B1 light
notes: as for B4
B16: GpH7-A5/GpH7-B3 variant Y296_06M/GpL16-k0 (antibody, human IgG1, kappa)
heavy 1: not shown
heavy 2: not shown
light: B1 light
notes: as for B4
B17: GpH7-B3 variant Y296_14T/GpL16-k0 (antibody, human IgG1, kappa)
heavy: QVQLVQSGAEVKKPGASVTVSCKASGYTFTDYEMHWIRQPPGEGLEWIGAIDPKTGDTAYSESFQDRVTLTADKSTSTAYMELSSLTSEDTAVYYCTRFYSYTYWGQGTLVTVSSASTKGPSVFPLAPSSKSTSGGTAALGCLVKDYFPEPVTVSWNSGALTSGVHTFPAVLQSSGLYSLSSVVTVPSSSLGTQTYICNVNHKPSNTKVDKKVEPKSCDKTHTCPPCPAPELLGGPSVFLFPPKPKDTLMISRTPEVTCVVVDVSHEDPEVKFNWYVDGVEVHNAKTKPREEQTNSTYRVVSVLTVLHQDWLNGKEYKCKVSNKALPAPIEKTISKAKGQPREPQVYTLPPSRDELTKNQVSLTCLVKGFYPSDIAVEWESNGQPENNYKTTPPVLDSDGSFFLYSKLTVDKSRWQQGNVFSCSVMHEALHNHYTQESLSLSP
light: B1 light
notes: as for B6
B18: GpH7-B3 variant Y296_20W/GpL16-k0 (antibody, human IgG1, kappa)
heavy: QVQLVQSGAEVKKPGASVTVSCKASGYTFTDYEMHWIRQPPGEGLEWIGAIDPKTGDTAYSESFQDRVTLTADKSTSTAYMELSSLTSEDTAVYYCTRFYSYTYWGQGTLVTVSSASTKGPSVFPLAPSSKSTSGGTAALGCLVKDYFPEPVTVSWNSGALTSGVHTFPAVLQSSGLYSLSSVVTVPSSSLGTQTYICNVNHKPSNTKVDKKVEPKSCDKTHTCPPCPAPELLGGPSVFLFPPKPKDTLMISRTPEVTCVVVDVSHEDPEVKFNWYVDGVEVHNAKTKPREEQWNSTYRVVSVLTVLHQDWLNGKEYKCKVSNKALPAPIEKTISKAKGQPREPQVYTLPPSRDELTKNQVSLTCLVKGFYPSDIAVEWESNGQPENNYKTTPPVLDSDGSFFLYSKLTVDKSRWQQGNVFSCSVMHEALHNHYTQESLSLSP
light: B1 light
notes: as for B6
B19: GpH7-B3 variant Y300_09D/GpL16-k0 (antibody, human IgG1, kappa)
heavy: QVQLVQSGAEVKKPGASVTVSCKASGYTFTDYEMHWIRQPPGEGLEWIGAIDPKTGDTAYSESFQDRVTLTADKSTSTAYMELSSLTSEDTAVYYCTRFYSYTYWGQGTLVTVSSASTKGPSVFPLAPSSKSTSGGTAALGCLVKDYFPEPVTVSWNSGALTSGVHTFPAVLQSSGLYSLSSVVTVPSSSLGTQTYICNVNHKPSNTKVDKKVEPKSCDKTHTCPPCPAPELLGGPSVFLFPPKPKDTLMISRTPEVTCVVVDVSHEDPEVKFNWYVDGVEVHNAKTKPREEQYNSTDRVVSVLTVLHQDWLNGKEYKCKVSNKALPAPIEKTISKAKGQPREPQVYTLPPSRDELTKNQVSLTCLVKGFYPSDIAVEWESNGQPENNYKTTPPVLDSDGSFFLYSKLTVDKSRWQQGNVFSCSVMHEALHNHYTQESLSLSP
light: B1 light
notes: as for B6
B20: GpH7-A5/GpH7-B3 variant Y300_11K/GpL16-k0 (antibody, human IgG1, kappa)
heavy 1: not shown
heavy 2: not shown
light: B1 light
notes: as for B4
B21: GpH7-A5/GpH7-B3 variant Y296_10E/GpL16-k0 (antibody, human IgG1, kappa)
heavy 1: not shown
heavy 2: not shown
light: B1 light
notes: as for B4
B22: GpH7-B3 variant Y296_19Q/GpL16-k0 (antibody, human IgG1, kappa)
heavy: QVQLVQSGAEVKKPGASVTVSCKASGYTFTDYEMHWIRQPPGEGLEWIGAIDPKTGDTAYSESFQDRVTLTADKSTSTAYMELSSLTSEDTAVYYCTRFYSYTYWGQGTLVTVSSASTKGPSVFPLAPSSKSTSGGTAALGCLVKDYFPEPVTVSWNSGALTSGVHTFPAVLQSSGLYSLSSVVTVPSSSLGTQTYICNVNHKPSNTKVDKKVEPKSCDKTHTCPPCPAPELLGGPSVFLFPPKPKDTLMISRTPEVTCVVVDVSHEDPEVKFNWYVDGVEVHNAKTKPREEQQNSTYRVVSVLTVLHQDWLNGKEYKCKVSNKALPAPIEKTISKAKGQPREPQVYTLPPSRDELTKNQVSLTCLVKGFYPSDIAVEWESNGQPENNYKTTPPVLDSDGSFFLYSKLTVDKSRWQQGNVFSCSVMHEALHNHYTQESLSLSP
light: B1 light
notes: as for B6
B23: GpH7-A5/GpH7-B3 variant T335_16H/GpL16-k0 (antibody, human IgG1, kappa)
heavy 1: not shown
heavy 2: not shown
light: B1 light
notes: as for B4
B24: GpH7-A5/GpH7-B3 variant T335_19Q/GpL16-k0 (antibody, human IgG1, kappa)
heavy 1: not shown
heavy 2: not shown
light: B1 light
notes: as for B4
B25: GpH7-B3 variant Y296_13S/GpL16-k0 (antibody, human IgG1, kappa)
heavy: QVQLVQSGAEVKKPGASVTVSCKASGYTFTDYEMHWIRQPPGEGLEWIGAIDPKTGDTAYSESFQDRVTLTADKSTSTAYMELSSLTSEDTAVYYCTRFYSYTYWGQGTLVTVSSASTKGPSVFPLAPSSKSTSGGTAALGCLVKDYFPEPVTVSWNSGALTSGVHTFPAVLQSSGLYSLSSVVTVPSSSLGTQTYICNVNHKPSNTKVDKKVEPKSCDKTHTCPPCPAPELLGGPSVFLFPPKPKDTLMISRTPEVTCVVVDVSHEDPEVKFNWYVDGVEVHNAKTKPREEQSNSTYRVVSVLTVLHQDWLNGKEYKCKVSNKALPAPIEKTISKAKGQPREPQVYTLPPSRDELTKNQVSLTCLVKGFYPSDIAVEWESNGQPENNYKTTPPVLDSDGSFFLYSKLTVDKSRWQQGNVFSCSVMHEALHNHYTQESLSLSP
light: B1 light
notes: as for B6
B26: GpH7-B3 variant Y300_13S/GpL16-k0 (antibody, human IgG1, kappa)
heavy: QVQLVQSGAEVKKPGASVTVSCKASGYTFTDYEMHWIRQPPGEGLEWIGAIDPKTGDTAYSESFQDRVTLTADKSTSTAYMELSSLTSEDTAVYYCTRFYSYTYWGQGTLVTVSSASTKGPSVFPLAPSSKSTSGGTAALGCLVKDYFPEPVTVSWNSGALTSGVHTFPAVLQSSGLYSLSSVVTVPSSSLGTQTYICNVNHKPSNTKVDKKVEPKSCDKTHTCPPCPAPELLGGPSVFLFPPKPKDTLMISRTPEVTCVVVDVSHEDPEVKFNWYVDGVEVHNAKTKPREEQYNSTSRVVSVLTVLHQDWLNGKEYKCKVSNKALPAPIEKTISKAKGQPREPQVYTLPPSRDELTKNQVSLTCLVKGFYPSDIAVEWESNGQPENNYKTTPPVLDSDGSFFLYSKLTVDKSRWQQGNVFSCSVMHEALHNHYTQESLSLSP
light: B1 light
notes: as for B6

Biological target: T1, FcγRIIa H (FcγRIIa type H, His at …)
Test: SPR Biacore; He/Con_2aH divided by He/Con_2b (reference: FcgRIIb)

| Binder | He_2aH/2b (IIaH/IIb) |
| --- | --- |
| B1 | 1.26 |
| B2 | 4.27 |
| B3 | 4.6 |

Biological target: T1, FcγRIIa H (FcγRIIa type H, His at …)
Test: SPR Biacore, captured antibody, FcgR analyte; GpH7-A5/GpH7-B3/GpL16-k0 = 100

| Binder | He/Con_2aH |
| --- | --- |
| B1 | 11.3 % of HeCon Ab |
| B2 | 32.2 % of HeCon Ab |
| B3 | 42.5 % of HeCon Ab |

Biological target: T2, FcγRIa (human, UniProt P12314 16-292)
T2 construct: extracellular domain; also called FcgRI; CD64; not shown: C-terminal His tag
Test: SPR (Biacore), antibody captured on antigen peptide chip, FcγRIa as analyte; relative binding amount
Protocol: Analysis of interaction between objective antibody and the FcγR was carried out using Biacore T100 (GE Healthcare). HBS-EP+ (GE Healthcare) was used as the running buffer, and the measurement temperature was set to 25° C. Chips produced by immobilizing the antigen peptide by the amine coupling method to a Series S Sencor Chip CM5 (GE Healthcare), or alternatively, chips produced by allowing preliminarily biotinylated antigen peptides to interact with and immobilize onto a Series S Sensor Chip SA (certified) (GE Healthcare) were used. Antibodies of interest were captured onto an antigen peptide-immobilized chip, and allowed to interact to each FcγR diluted with running buffer. To regenerate and repeatedly use the chip, the antibodies captured on the chip were washed off by reacting 10 mM glycine-HCl, pH 1.5.

T2 sequence (P12314 16-292): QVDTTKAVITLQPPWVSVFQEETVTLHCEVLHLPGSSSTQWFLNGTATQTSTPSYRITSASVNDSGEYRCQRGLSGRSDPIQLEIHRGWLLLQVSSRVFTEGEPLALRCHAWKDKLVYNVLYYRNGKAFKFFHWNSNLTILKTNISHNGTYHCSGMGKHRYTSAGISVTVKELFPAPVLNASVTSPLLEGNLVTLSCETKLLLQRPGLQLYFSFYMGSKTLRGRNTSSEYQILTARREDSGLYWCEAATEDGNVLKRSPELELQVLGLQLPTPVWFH

| Binder | He/Con_1a | Ho/Con_1a |
| --- | --- | --- |
| B4 | 116 % of control (GpH7-A5/GpH7-B3/GpL16-k0 = 100) |  |
| B5 | 112 % of control (GpH7-A5/GpH7-B3/GpL16-k0 = 100) |  |
| B6 |  | 111 % of control (GpH7-B3/GpL16-k0 = 100) |
| B7 | 105 % of control (GpH7-A5/GpH7-B3/GpL16-k0 = 100) |  |
| B8 | 112 % of control (GpH7-A5/GpH7-B3/GpL16-k0 = 100) |  |
| B9 | 112 % of control (GpH7-A5/GpH7-B3/GpL16-k0 = 100) |  |
| B10 | 113 % of control (GpH7-A5/GpH7-B3/GpL16-k0 = 100) |  |
| B11 |  | 101 % of control (GpH7-B3/GpL16-k0 = 100) |
| B12 |  | 104 % of control (GpH7-B3/GpL16-k0 = 100) |
| B13 |  | 103 % of control (GpH7-B3/GpL16-k0 = 100) |
| B14 | 106 % of control (GpH7-A5/GpH7-B3/GpL16-k0 = 100) |  |
| B15 | 117 % of control (GpH7-A5/GpH7-B3/GpL16-k0 = 100) |  |
| B16 | 104 % of control (GpH7-A5/GpH7-B3/GpL16-k0 = 100) |  |
| B17 |  | 105 % of control (GpH7-B3/GpL16-k0 = 100) |
| B18 |  | 106 % of control (GpH7-B3/GpL16-k0 = 100) |
| B19 |  | 111 % of control (GpH7-B3/GpL16-k0 = 100) |
| B20 | 107 % of control (GpH7-A5/GpH7-B3/GpL16-k0 = 100) |  |
| B21 | 106 % of control (GpH7-A5/GpH7-B3/GpL16-k0 = 100) |  |
| B22 |  | 104 % of control (GpH7-B3/GpL16-k0 = 100) |
| B23 | 106 % of control (GpH7-A5/GpH7-B3/GpL16-k0 = 100) |  |
| B24 | 105 % of control (GpH7-A5/GpH7-B3/GpL16-k0 = 100) |  |
| B25 |  | 105 % of control (GpH7-B3/GpL16-k0 = 100) |
| B26 |  | 110 % of control (GpH7-B3/GpL16-k0 = 100) |
